# B1: alpha-cyclopentyl, sarcosine11-CsA (CpSar11-CsA) (peptide)
# peptide: XXXXXVXAXXX
# modifications: head-to-tail cyclic undecapeptide made by cyclising linear peptide 11; residues as printed: CpSar (L-alpha-cyclopentylsarcosine, position 11 of CsA)-MeBmt-Abu-Sar-MeLeu-Val-MeLeu-Ala-D-Ala-MeLeu-MeLeu (N-methylated residues, D-Ala, Abu, MeBmt)
# Legend:
# [1] = target: CypA wild type with N-terminal FLAG epitope tag, expressed from pBJ5 in Jurkat cells (UniProt P62937 1-165); test: cell-based or functional assay
# [2] = target: CypAgtm (S99T, F113G, C115M) with N-terminal FLAG epitope tag, expressed from pBJ5 in Jurkat cells (UniProt P62937 1-165); test: cell-based or functional assay
# CypAgtm (S99T, F113G, C115M) with N-terminal FLAG epitope tag, expressed from pBJ5 in Jurkat cells, sequence (P62937 whole entry S99T/F113G/C115M): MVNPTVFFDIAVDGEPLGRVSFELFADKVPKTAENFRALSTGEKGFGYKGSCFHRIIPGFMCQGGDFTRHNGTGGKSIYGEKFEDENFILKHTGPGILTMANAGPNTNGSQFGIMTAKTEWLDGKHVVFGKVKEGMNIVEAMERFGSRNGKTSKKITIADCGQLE
# CypA wild type with N-terminal FLAG epitope tag, expressed from pBJ5 in Jurkat cells, sequence (P62937 whole entry): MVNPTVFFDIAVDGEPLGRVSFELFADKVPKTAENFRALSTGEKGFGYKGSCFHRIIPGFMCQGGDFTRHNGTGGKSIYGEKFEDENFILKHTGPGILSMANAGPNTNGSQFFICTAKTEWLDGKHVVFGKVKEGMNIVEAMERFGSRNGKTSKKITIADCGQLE
binder,measurement,setting,value
B1,IC50 in Cellular NFAT-Signalling,[1],> 400 nM
same,IC50 in Cellular NFAT-Signalling,[2],25 nM
